Data published in patent US8450464 (Bristol-Myers Squibb, dated 2013).
Changes are numbered by the printed parent chain.

B1: anti-CXCR4 human monoclonal antibody D1 (antibody, V domains shown)
VH: EVQLVQSGGGLVQPGGSLRLSCAAAGFTFSSYSMNWVRQAPGKGLEWVSYISSRSKTIYYADSVKGRFTISRDNARNSLYLQMNSLRDEDTAVYYCARDYGGQPPYYYYYGMDVWGQGTTVTVSS
VL: VIWVTQSPSSLSASVGDRVTITCRTSQGISSWLAWYQQKPEKAPELLIYAASSLQSGVPSRFSGSGSGTDFTLTISSLQPEDFATYYCQQYNSYPRTFGQGTKVEIK
notes: Tested as full-length antibody
B2: anti-CXCR4 human monoclonal antibody E2 (antibody, V domains shown)
VH: B1 VH with K56R, R76K, Y107H
VL: B1 VL with V1E, W3V, V4L, T25A, S31N, E45K, L46S
notes: as for B1

Assays:
human CXCR4 [1] = target: T1, human CXCR4 (human, UniProt P61073 1-352); test: competition flow cytometry on CEM cells: unlabeled antibody titrated against a constant concentration of FITC-labeled F9, fluorescent geometric mean; unit from the axis 'Ab Concentration in nM'
human CXCR4 [2] = target: T1, human CXCR4; test: flow cytometry on CEM cells, FITC anti-human IgG detection
Experimental: (§1) The antibodies were then mixed with CEM cells and allowed to bind before being detected with a FITC-conjugated anti-human IgG secondary antibody. The cells were then analyzed by fluorescent cytometry.

human CXCR4 [3] = target: T1, human CXCR4; test: radioligand competition on CEM cells; competitor 100 pM 125I-SDF-1
Experimental: The anti-CXCR4 antibodies were serially diluted 1:3 to yield a range of concentrations from 300 nM to 137 pM. […] An irrelevant antibody of the same isotype was used as a negative control.

human CXCR4 [4] = target: T1, human CXCR4; test: flow cytometry titration on CEM cells (native human CXCR4), FITC anti-human IgG secondary, MFI; unit from the axis 'Conc in nM'
Experimental: as §1

human CXCR4 [5] = target: T1, human CXCR4; test: cell-based or functional assay
human CXCR4 [6] = target: T1, human CXCR4; test: competition flow cytometry on CEM cells: unlabeled antibody titrated against a constant concentration of FITC-labeled F9, fluorescent geometric mean; unit from the axis 'Ab Concentration in nM'; the fitted value lies above the highest concentration shown (about 300 nM), inhibition is only partial
Experimental: To determine the ability of a panel of anti-CXCR4 antibodies to compete for binding to CXCR4, competition studies were performed. […] The mixture of antibodies was then added to CEM cells and allowed to bind.

human CXCR4 [7] = target: T1, human CXCR4; test: flow cytometry titration on CEM cells (native human CXCR4), FITC anti-human IgG secondary, MFI; unit from the axis 'Conc in nM'; the curve is still rising at the highest concentration, no upper plateau
Experimental: as §1

T1 sequence (P61073 whole entry): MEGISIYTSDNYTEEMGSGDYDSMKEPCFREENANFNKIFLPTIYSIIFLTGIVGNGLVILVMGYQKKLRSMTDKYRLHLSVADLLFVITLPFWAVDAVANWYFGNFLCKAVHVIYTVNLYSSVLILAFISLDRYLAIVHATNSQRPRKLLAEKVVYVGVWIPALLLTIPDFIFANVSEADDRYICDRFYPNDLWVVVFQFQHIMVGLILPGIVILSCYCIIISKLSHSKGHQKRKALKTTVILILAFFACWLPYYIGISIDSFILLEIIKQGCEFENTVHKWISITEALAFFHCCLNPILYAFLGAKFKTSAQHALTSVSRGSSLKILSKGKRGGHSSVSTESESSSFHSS

Molecule | EC50 (human CXCR4 [1]) | EC50 (human CXCR4 [2]) | EC50 (human CXCR4 [3]) | EC50 (human CXCR4 [4]) | EC50 for inhibition of SDF-1-induced calcium flux in CEM cells (human CXCR4 [5]) | EC50 (human CXCR4 [6]) | EC50 (human CXCR4 [7])
murine monoclonal anti-CXCR4 antibody 12G5 | 102 nM |  |  |  |  |  | 
B1 | 59.2 nM | 80 nM | 28.6 nM | 79.9 nM | 0.57 nM |  | 
B2 |  | 290 nM |  |  |  | 469 nM | 290 nM
